Target: Vibrio cholerae ApbE (alternative pyrimidine biosynthesis protein), recombinant, without the leader sequence (Vibrio cholerae) (UniProt A5F5Y3)
Sequence (A5F5Y3 18-334): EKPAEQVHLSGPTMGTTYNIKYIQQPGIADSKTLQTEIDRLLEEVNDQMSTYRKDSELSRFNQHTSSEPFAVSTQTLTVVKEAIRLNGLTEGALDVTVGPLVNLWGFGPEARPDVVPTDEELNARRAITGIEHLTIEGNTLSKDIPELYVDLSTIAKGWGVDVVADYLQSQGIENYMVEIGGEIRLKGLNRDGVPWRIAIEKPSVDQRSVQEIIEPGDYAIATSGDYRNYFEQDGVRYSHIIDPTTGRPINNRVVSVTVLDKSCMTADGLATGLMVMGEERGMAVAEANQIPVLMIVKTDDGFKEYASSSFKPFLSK

## Vibrio cholerae NqrC (subunit C of Na+-NQR), soluble, without the N-terminal transmembrane helix (domain or fragment)
  Km for NqrC in the steady-state flavin transfer activity of ApbE (NqrC varied, FAD 1 mM, pH 9.0): > 100 μM
